The source of these data is patent US7345026 (INSTITUT PASTEUR, dated 2008).

Sequences and labels used below:
B1: Tyrosinase 368-376-D epitopic peptide (peptide)
peptide: YMDGTMSQV
notes: synthetic peptide; also called Tyrosinase.368-D

This experiment has as its target T1, HLA-A2.1 molecules on T2 (TAP-, HLA-A2.1+) cells (human).
T1 construct: MHC class I molecule to which peptides were added from outside; Surface HLA-A2.1 was detected with mAb BB7.2; also called H.A.-A2.1
The experiment is described as follows: T2 cells, peptide binding by surface HLA-A2.1 (BB7.2) flow cytometry; ratio of concentrations reaching 20% of maximal binding. On the technique in general: Flow cytometry measures light scatter and fluorescence of single cells or particles in a stream.
Regarding VLYRYGSFSV (synthetic peptide) [gp100 476-485 epitopic peptide], the “RA (relative affinity)” value was 10 ratio to HIV 1 rt.476 reference peptide.

For MLLAVLYCL (synthetic peptide) [Tyrosinase 1-9 epitopic peptide], the “RA (relative affinity)” value was > 60 ratio to HIV 1 rt.476 reference peptide.

Turning to ILTVILGVL (synthetic peptide) [Melan-A/MART-1 32-40 epitopic peptide], the “RA (relative affinity)” value is 21.1 ratio to HIV 1 rt.476 reference peptide.

As for LLDGTATLRL (synthetic peptide) [gp100 457-466 epitopic peptide], the “RA (relative affinity)” value was 1.65 ratio to HIV 1 rt.476 reference peptide.

Turning to B1, the “RA (relative affinity)” value was 2.27 ratio to HIV 1 rt.476 reference peptide.
